The DeepSol protein solubility set

Assay: soluble on expression in E. coli; label from the status in PepcDB or PDB records

Question: Which “soluble on expression in E. coli” value does the source give for “MLKRLISIPTVAPQGDHYGEAAELLARELESLGFETVVERVPSEYQREKCRHASDNPRFIVYGRRGEGPALHFNGHYDVVPGGPGWSVTEPFKPVVKDGKLYGRGAIDMKGGIAAALGAFKALHLSGAWPQGLRVEAAFVPDEEIGGECGTGYLVNGMGVTPEYVVLPEPSGLEKPWHGHRGILWMKVRVKGRTAHASTPWHGRNAFLLASAIALDLQQALASMYAGRRSRHRIEPEESAKPTVSLGGEAGVTGGGKTNQVPGEFYFTVDRRLIPEETVSQARDELLGVLTWLSVKHGAEVEAEEVISAEPAINEPGELYEALREAASQSGRSIGEPVVCPGGLDMWYYTVKGSKALAYGPRGELAHAPDEHIDLGELRFLVETFARLPITLAVALQRRT” here?
Answer: soluble

Question: For “MRKIQVGVTGMTCAACSNSVEAALMNVNGVFKASVALLQNRADVVFDPNLVKEEDIKEEIEDAGFEAEILAEEW”, which “soluble on expression in E. coli” value is on record?
Answer: soluble

Question: Which “soluble on expression in E. coli” value does the source give for “MDLSNRTVLIVGGTSGIGRELARRFAAAGSTVAVGGRSPEALSELAGEGFGTISIDVTDSASVASARDAVLARYPELDTVVTMPGIMLLEDLRDPAHFEAAATTIDTNLVGTIRVIDAFTPHLVRRGAGTFITVTSGIAFLPFPPMPTYAASKAAVHAYSEALRAQLDGTGVSVVELVPPAVATAGQEKVNPHALPLDDFATEVVQLLSEDPTPREILVKAALMHRWAERDGTYDDLVAQRSQALAMLPSREG” here?
Answer: not soluble

Question: For “MAETKIVVGPQPFSVGEEYPWLAERDEDGAVVTFTGKVRNHNLGDSVNALTLEHYPGMTEKALAEIVDEARNRWPLGRVTVIHRIGELWPGDEIVFVGVTSAHRSSAFEAGQFIMDYLKTRAPFWKREATPEGDRWVEARESDQQAAKRW”, which “soluble on expression in E. coli” value is on record?
Answer: soluble

Question: With “MGIKKKYGEGKMDIKPIRKKRVYQAIIEQIQQFIRQGQLKPGDKLPSERDLAEKFQVSRTTIKEAIAVMEAIGVLEIRPGVGTFVRETGNHFLDLNYIFGDDDTEIQELMEFRQAIEVEAAYYAAIRGTEDGKRKLTQLFSELEKEVMSGKLPAKSDFSFHMQISSMSQNALFLRIMEFISDKLFKSVTKNAVNTFAGAGDPVRVLQEHRAIYEAILSGDGVKARQAMRYHLESVIARYKGI” as the sequence, how does the “soluble on expression in E. coli” value read?
Answer: soluble

Question: With “MKQVLVIKNERSSAKKIVSGLTQEGYFILKLHNENEGLNIIYEQDWDIIILDWDSLSISGPEICRQIRLVKTTPIIIVTDNISSKDCVAGLQAGADDYIRKPFAKEELVARVQAILRRSDCNQQKEINFFQFKDLFVDASSNIVKKGGKNLSLTKREYDLLVFLIKNKNTILSREMLLNQVWGYNIVVNPNVVDLYIGYVRKKLKCEKKERYIQTIHGRGYSMIE” as the sequence, how does the “soluble on expression in E. coli” value read?
Answer: not soluble

Question: With “MQAVNTTSGGAVGVERQQYMFSMLSTDEVNQMYAQSYQQTLGEASSKGVLDKSSADAKRVQAIANRLIAQAPKFRPDAAQWDWQVNVIKSDELNANCGPGGKIIVYTGLIDQLKLTDAEIAAVVGHEIAHALREHSREAMSKAYGVEMARQGAGAIFGLGQSSMAMADTVVNYAMTLPNSRANENEADLIGLELSARAGYDPNAAITLWNKMSKASEGAPPEFMSTHPASASRIASLQAAIPKVMPLYQAAAKPLEHHHHHH” as the sequence, how does the “soluble on expression in E. coli” value read?
Answer: soluble

Question: For “MQVIIISGLSGSGKSIALKVLEDSGYYCVDNLPASLLVVLINHLQTQQHAYVAVAIDMRSGENITVLPWQLKMIDKSIQIKFIFLEARTETLMQRFSETRRRHPLSDKNITLEEAIRREREALATLTGLGHHIDTSSLRPNVLRAFIKDFIADSRSPSQLTLLFQSFGYKHGIPLDADLVFDIRCLPNPFYDPQLKELTGHDPEVIRFMESQPDASKMLRDISSFLGTWLPAYIRDNRAYLTVAIGCTGGQHRSVYFAEKLALHFHDSAHVLVRHRGLAEYKPHYARR”, which “soluble on expression in E. coli” value is on record?
Answer: not soluble

Question: For “MGITALAFDFGTKSIGCAIGQSITGTAQALPAFKAQDGIPNWEAIEKCLKEWKPDVVIVGLPLNMDGTEQDLTLRARKFANRLQGRFGVNVHLQDERLTTTQARSEIFERGGFKALKKGKIDGVSACLILESWFEYAEY”, which “soluble on expression in E. coli” value is on record?
Answer: not soluble

Question: Which “soluble on expression in E. coli” value does the source give for “MSLRGNFFSFVRISGQSMSPNLVNNQIVLLEKKANVSRGTVIVSKTNNLQKQNTGVQDIALRVVALPGDKVNYKKGQLYVNGKKVNQSYISSQVKTETGMSIDTGWSINSLSLSKNWPKSQRNIKKVQKNSYFVLADNRIDPVDSRQYGLIKKRQIEGVVKVFFLGNKNKDEGHHHHHH” here?
Answer: not soluble

Question: Which “soluble on expression in E. coli” value does the source give for “METQIHQLEQEAYTAVLRAFKAQSDAISWEKESLITELRKELRVSDDEHRELLSRVNKDDTIQRIRDWRQGGASQITRHATIQPFDVLPSPTFSAARKKQKTFPSYNPSIGATGNRSFNNRLVSSGISGNESAEALIGRKVWTKWPEDNHFYEAIITQYNADEGRHALVYDIHAANETWEWVDLKEIPPEDIRWDGEESGVALNIGHGSASFRGNRRGQIHGGRGRGPRIHQPRRELVPPPTQQNGSGGRRTSSDDIELFNTDSLVKEVERVFDSTHPDPLELDKAKKMLKEHEQALIAAIARLADTSDGEMDGDPPYSHDHPMPQG” here?
Answer: not soluble

Question: For “MDLEMMLDEDYKEGICLINFSQIALSTALVNFPDKEKINLSMVRHLILNSIKFNVKKAKTLGYTKIVLCIDNAKSGYWRRDFAYYYKKNRGKAREESTWDWEGYFESSHKVIDELKAYMPYIVMDIDKYEADDHIAVLVKKFSLEGHKILIISSDGDFTQLHKYPNVKQWSPMHKKWVKIKSGSAEIDCMTKILKGDKKDNVASVKVRSDFWFTRVEGERTPSMKTSIVEAIANDREQAKVLLTESEYNRYKENLVLIDFDYIPDNIASNIVNYYNSYKLPPRGKIYSYFVKAGLSKLTNSINEF”, which “soluble on expression in E. coli” value is on record?
Answer: soluble

Question: With “MAHHHHHHMRHSTYVEVCLRNIAYNVECIRRIAGKAELIPMVKGNAYGHGMGKVSEYLHNVCGVHTFGVASLGEALELIESQPSIAEKAQNEIFVFSDTEVLNEGCQSYYQPCGRWAVRLTPILGTLPQLKAFCASNAFNNTKLCLKLETGMNRLGLRFDELEEAVPILKQRGGVDLLLQHFGIAGSVERLAETLNHYEAFKNAKKFLHDSGVEVRATSVSNSGAVEQRIGLEETYIRPGIMLYGPRSVTSKNLWNGKFASCFYTKVLHHFPLRKGEGVGYDLTPVKADSVIVMLPIGYADGFLCTYKGMPIKVTPEDAAEPIIGTVHGRINMDMAAVVVYPEEVGKNIGNIMAAVKKESRIHVWGDDIEEKAVSVGAIPHQLTCGLSIRVPRIYM” as the sequence, how does the “soluble on expression in E. coli” value read?
Answer: not soluble

Question: For “MGSDKIHHHHHHMKITLHGVAETLLITLYIRAKDAMAKHPILNDQKSLAIVEQIEYDFDKFDNSEASFYATLARIRVMDREIKKFIRENPNSQILSIGCGLDTRFERVDNGQIRWYNLDLPEVMEIRKLFFEEHERVTNIAKSALDETWTREVNPQNAPFLIVSEGVLMFLKEDDVETFLHILTNSFSQFMAQFDLCHKEMINKGKQHDTVKYMDTEFQFGITDGHEIVDLDPKLKQINLINFTDEMSKFELGTLRSLLPTIRKFNNCLGVYEYKASEKK”, which “soluble on expression in E. coli” value is on record?
Answer: not soluble

Question: Which “soluble on expression in E. coli” value does the source give for “MRIPRIYHPISLENQTQCYLSEDAANHVARVLRMTEGEQLELFDGSNHIYPAKIIESNKKSVKVEILGRELADKESHLKIHLGQVISRGERMEFTIQKSVELGVNVITPLWSERCGVKLDAERMDKKIQQWQKIAIAACEQCGRNIVPEIRPLMKLQDWCAENDGALKLNLHPRAHYSIKTLPTIPAGGVRLLIGSEGGLSAQEIAQTEQQGFTEILLGKRVLRTETASLAAISALQICFGDLGEAAAAAALEHHHHHH” here?
Answer: soluble

Question: For “MGHHHHHHSHMDTPENVLQMLEAHMQSYKGNDPLGEWERYIQWVEENFPENKEYLITLLEHLMKEFLDKKKYHNDPRFISYCLKFAEYNSDLHQFFEFLYNHGIGTLSSPLYIAWAGHLEAQGELQHASAVLQRGIQNQAEPREFLQQQYRLFQTRLTETHLPAQAR”, which “soluble on expression in E. coli” value is on record?
Answer: not soluble
